# Results published in patent US20240376224A1 (University of California, published 2024).
# B1: CL03 IgG (antibody, V domains shown)
# VH: EVQLVESGGGLVQPGGSLRLSCAASGFNFSSYSIHWVRQAPGKGLEWVASIYPYSGSTYYADSVKGRFTISADTSKNTAYLQMNSLRAEDTAVYYCARQSHSYYSHTWWVSYGMDYWGQGTLVTVSS
# VL: DIQMTQSPSSLSASVGDRVTITCRASQSVSSAVAWYQQKPGKAPKLLIYSASSLYSGVPSRFSGSRSGTDFTLTISSLQPEDFATYYCQQSGQRPITFGQGTKVEIKR
# notes: also called IgG CL03
# Key:
# [1] = target: T1, mouse fl-CDCP1 (recombinant uncleaved mouse CDCP1) (mouse, UniProt Q5U462 30-666); assay: BLI (Octet), mouse fl-CDCP1-Fc on the sensor, IgG CL03 as analyte
# T1 construct: The mouse antigen made was fl-CDCP1-Fc; also called mouse fl-CDCP1-Fc
# T1 sequence: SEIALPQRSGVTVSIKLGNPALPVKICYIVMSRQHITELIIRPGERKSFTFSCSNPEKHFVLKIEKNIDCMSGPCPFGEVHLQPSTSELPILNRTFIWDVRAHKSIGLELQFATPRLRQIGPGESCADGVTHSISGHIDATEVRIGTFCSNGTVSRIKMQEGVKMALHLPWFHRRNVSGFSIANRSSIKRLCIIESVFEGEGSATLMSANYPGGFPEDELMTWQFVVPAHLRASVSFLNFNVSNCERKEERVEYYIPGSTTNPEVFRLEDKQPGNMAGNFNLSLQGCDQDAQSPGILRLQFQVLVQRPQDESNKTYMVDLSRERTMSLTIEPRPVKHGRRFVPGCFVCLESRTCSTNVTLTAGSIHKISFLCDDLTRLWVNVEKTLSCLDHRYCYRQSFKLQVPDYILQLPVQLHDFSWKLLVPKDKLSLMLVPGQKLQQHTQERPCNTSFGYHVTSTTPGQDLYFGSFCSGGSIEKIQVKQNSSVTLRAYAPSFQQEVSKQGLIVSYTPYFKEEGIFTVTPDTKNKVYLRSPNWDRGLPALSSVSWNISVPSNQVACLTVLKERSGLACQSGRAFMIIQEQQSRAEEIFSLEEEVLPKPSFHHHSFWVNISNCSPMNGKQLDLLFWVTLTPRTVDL
# [2] = target: T2, mouse c-CDCP1 (recombinant cleaved mouse CDCP1) (mouse, UniProt Q5U462 30-368; Q5U462 369-666, limits assumed); assay: BLI (Octet), mouse c-CDCP1-Fc on the sensor, IgG CL03 as analyte
# T2 construct: Mouse antigens made were c-CDCP1-Fc (Cut 1) and (Cut 2); also called mouse cleaved CDCP1; cleaved mCDCP1
# T2 sequence 1: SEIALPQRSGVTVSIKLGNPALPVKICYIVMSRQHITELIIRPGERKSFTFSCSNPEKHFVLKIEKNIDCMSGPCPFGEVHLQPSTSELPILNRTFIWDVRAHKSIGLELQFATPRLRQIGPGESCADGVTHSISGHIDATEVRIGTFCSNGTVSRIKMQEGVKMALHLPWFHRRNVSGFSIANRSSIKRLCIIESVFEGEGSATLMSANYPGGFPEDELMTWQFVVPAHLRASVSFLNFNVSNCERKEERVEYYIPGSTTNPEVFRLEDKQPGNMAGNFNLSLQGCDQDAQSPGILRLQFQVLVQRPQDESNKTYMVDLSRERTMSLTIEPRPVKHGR
# T2 sequence 2: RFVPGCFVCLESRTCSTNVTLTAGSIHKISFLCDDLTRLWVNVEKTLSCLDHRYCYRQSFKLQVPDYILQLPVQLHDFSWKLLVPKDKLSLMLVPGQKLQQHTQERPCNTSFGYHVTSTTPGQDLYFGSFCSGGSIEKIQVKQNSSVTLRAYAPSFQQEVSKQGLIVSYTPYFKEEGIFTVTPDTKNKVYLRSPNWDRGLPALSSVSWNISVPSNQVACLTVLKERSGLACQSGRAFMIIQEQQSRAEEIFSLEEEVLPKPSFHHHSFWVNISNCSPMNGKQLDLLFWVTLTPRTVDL
binder,measurement,setting,value
B1,binding result,[1],no binding (tested: not printed)
same,binding result,[2],no binding (tested: not printed)
